Data taken from article PMC5170556 (Molecular Biology of the Cell, 2016).

Experiments:
[1] = target: T1, C-terminally green fluorescent protein–tagged Bim1 (S. cerevisiae, UniProt P40013 1-344); experiment: AUC
T1 sequence (looked up): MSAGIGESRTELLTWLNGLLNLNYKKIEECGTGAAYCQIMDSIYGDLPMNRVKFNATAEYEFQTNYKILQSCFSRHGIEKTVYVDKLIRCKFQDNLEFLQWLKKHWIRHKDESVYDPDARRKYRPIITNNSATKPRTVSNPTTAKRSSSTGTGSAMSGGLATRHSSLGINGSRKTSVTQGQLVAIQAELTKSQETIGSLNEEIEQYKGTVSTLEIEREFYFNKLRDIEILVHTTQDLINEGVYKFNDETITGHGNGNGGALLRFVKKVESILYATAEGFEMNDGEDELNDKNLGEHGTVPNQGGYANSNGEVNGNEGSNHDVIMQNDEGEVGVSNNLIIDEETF

[2] = target: T2, Bim1 (full-length) (S. cerevisiae, UniProt P40013 1-344); experiment: SEC-MALS
T2 sequence (looked up): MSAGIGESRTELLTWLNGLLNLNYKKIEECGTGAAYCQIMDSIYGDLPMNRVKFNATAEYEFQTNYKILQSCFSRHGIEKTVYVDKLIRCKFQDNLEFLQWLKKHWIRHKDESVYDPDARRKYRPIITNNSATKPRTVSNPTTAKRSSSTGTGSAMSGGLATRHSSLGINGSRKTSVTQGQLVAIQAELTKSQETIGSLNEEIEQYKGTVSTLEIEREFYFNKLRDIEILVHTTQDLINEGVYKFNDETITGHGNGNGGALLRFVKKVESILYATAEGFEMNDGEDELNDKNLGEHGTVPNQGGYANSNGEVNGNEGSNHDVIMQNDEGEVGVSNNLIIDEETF

B1: Kar9 (full-length) (natural protein, S. cerevisiae, UniProt P32526 1-644, looked up)
chain: MDNDGPRSMTIGDDFQENFCERLERIHNTLHSINDCNSLNESTTSISETLLVQFYDDLENVASVIPDLVNKKRLGKDDILLFMDWLLLKKYMLYQFISDVHNIEEGFAHLLDLLEDEFSKDDQDSDKYNRFSPMFDVIEESTQIKTQLEPWLTNLKELLDTSLEFNEISKDHMDTLHKIINSNISYCLEIQEERFASPIRHTPSFTLEQLVKLLGTHTETTEPKVPKFSPAEDILSRKFLNLKKNIPPIEKSLTDILPQRIVQFGHRNITNITTLQTILQKKYELIMKDYRFMNSEFRELKVELIDKRWNILFINLNHELLYILDEIERLQSKLLTTKYTKDITIRLERQLERKSKTVSKTFNIIYRALEFSLLDAGVASKTNELAQRWLNIKPTADKILIKSSASNKIATSKKKIPKPKSLGFGRPNSVIGTITQDFQERVAINEGDSNKTPENSTTVALKGKKLGKALLQKMNIKPATSPNSSNAINPFFDPESPNKGKLILSSVPPLPYDETDETTLRVSRGENEKSPDSFITSRHENKVQITETPLMAKNKSVLDIEKDKWNHYRSLPSRIPIYKDKVVKVTVENTPIAKVFQTPPTKITTPNSQVWVPSTRRRTRLRPPTPLSQLLSPREGRLDKTPTY
For B1, the “stoichiometry N” value [1] was 1 Kar9 monomer per Bim1 dimer and the “stoichiometry N” value [2] was 1 Kar9 monomer per Bim1 dimer.
